The assay has as its target 人可溶性BLyS (human soluble BLyS) (human) (UniProt Q9Y275). Nature of the assay: cell-based or functional assay.

For the substance Benlysta (antibody), the IC50 of inhibition of the NF-κB signal downstream of human BLyS binding TACI (luciferase reporter gene assay) is 51.7 ng/mL.

(Values after patent CN115232208A.)
